# According to patent US20230265151A1, “GIP/GLP1 CO-AGONIST COMPOUNDS” (priority 2020, published 2023):
# Residue numbers refer to the chain shown, from its start. *1 amine or outer side, *2 acyl side, *3 side chain or, on linkers, in order; H or OH if unused. Where no end group is shown, it is not given here. Side-chain parts run from the residue outwards. [ ]: non-standard residue; d: D form. The star is where a group is joined. Decanoyl(10-(4-HOOC-PhO)) = O=C(O)c1ccc(OCCCCCCCCCC(=O)*)cc1; αMePhe(2-F) = C[C@](N)(Cc1ccccc1F)C(=O)O; γGlu = O=C(O)[C@H](CCC(=O)[*:2])N[*:1]; C14 diacid = O=C(O)CCCCCCCCCCCCC(=O)*; αMeY = C[C@](N)(Cc1ccc(O)cc1)C(=O)O; 4Pal = N[C@@H](Cc1ccncc1)C(=O)O; αMeL = CC(C)C[C@](C)(N)C(=O)O; Lauroyl = CCCCCCCCCCCC(=O)*; Orn = NCCC[C@H](N)C(=O)O; AEEA = NCCOCCOCC(=O)O; Aib = CC(C)(N)C(=O)O
# T1: human GIP receptor (human) (UniProt P48546)
# T1 sequence (looked up): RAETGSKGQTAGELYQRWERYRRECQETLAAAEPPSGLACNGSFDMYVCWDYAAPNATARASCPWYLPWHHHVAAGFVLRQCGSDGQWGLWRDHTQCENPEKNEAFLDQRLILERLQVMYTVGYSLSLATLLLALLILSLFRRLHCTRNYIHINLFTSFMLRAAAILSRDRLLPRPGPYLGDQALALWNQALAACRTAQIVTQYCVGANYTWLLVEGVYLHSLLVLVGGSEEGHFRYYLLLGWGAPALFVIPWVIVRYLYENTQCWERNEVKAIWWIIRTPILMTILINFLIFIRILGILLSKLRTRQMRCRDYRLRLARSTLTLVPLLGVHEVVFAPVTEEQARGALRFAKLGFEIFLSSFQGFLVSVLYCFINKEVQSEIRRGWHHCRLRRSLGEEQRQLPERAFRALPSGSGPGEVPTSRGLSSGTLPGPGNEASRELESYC
# T2: human GIP receptor (human, UniProt P48546 22-466)
# T2 sequence (looked up): T1 sequence (looked up)
# B1: Example 409 (peptide)
# peptide: YXEGTXTSDYXIXLDXKAQXKFIXXLIXGGPSSGAPPPS
# modifications: Y-Aib-EGT-αMeF(2F)-TSDY-Aib-I-αMeL-LD-Orn-K((2-[2-(2-Amino-ethoxy)-ethoxy]-acetyl)2-(γ-Glu)-(10-(4-carboxyphenoxy)decanoyl))AQ-Aib-K((2-[2-(2-Amino-ethoxy)-ethoxy]-acetyl)2-(γ-Glu)-(10-(4-carboxyphenoxy)decanoyl))FI-(D-Glu)-αMeY-LI-Orn-GGPSSGAPPPS-NH2
# B2: Example 419 (peptide)
# peptide: B1 peptide with Y10X, K21T, X28K
# modifications: Y-Aib-EGT-αMeF(2F)-TSD-4Pal-Aib-I-αMeL-LD-Orn-K((2-[2-(2-Amino-ethoxy)-ethoxy]-acetyl)2-(γ-Glu)-CO-(CH2)10-CH3)AQ-Aib-TFI-(D-Glu)-αMeY-LIK((2-[2-(2-Amino-ethoxy)-ethoxy]-acetyl)2-(γ-Glu)-CO-(CH2)10-CH3)GGPSSGAPPPS-NH2
# B3: Example 421 (peptide)
# peptide: B1 peptide with Y10K, K21E, X28E
# modifications: Y-Aib-EGT-αMeF(2F)-TSDK((2-[2-(2-Amino-ethoxy)-ethoxy]-acetyl)3-(γ-Glu)-CO-(CH2)10-CH3)-Aib-I-αMeL-LD-Orn-K((2-[2-(2-Amino-ethoxy)-ethoxy]-acetyl)3-(γ-Glu)-CO-(CH2)10-CH3)AQ-Aib-EFI-(D-Glu)-αMeY-LIEGGPSSGAPPPS-NH2
# B4: Example 414 (peptide)
# peptide: B1 peptide with Y10X, K21X, X28K
# modifications: Y-Aib-EGT-αMeF(2F)-TSD-4Pal-Aib-I-αMeL-LD-Orn-K((2-[2-(2-Amino-ethoxy)-ethoxy]-acetyl)2-(γ-Glu)-CO-(CH2)10-CH3)AQ-Aib-Orn-FI-(D-Glu)-αMeY-LIK((2-[2-(2-Amino-ethoxy)-ethoxy]-acetyl)2-(γ-Glu)-CO-(CH2)10-CH3)GGPSSGAPPPS-NH2
# B5: Example 417 (peptide)
# peptide: B1 peptide with Y10K, K21X, X28E
# modifications: Y-Aib-EGT-αMeF(2F)-TSDK((2-[2-(2-Amino-ethoxy)-ethoxy]-acetyl)2-(γ-Glu)-CO-(CH2)10-CH3)-Aib-I-αMeL-LD-Orn-K((2-[2-(2-Amino-ethoxy)-ethoxy]-acetyl)2-(γ-Glu)-CO-(CH2)10-CH3)AQ-Aib-Orn-FI-(D-Glu)-αMeY-LIEGGPSSGAPPPS-NH2
# B6: Example 418 (peptide)
# peptide: YXEGTXTSDXXIXLDXKAQXXFIXXLIEGGPSSGAPPPSK
# modifications: Y-Aib-EGT-αMeF(2F)-TSD-4Pal-Aib-I-αMeL-LD-Orn-K((2-[2-(2-Amino-ethoxy)-ethoxy]-acetyl)2-(γ-Glu)-CO-(CH2)10-CH3)AQ-Aib-Orn-FI-(D-Glu)-αMeY-LIEGGPSSGAPPPSK((2-[2-(2-Amino-ethoxy)-ethoxy]-acetyl)2-(γ-Glu)-CO-(CH2)10-CH3)-NH2
# B7: Example 420 (peptide)
# peptide: B6 peptide
# modifications: Y-Aib-EGT-αMeF(2F)-TSD-4Pal-Aib-I-αMeL-LD-Orn-K((2-[2-(2-Amino-ethoxy)-ethoxy]-acetyl)2-(γ-Glu)-CO-(CH2)10-CH3)AQ-Aib-4Pal-FI-(D-Glu)-αMeY-LIEGGPSSGAPPPSK((2-[2-(2-Amino-ethoxy)-ethoxyl-acetyl)2-(γ-Glu)-CO-(CH2)10-CH3)-NH2
# B8: Example 407 (peptide)
# peptide: Y[Aib]EGT[αMePhe(2-F)]TSDV[Aib]I[αMeL]LD[Orn]K([AEEA-AEEA-γGlu-C14 diacid])AQ[Aib]K([AEEA-AEEA-γGlu-C14 diacid])FI[dE][αMeY]LI[Orn]GGPSSGAPPPS-NH2
# modifications: N-terminus assumed
# SMILES: CC[C@H](C)[C@H](NC(=O)[C@H](CC(C)C)NC(=O)[C@](C)(Cc1ccc(O)cc1)NC(=O)[C@@H](CCC(=O)O)NC(=O)[C@@H](NC(=O)[C@H](Cc1ccccc1)NC(=O)[C@H](CCCCNC(=O)COCCOCCNC(=O)COCCOCCNC(=O)CC[C@H](NC(=O)CCCCCCCCCCCCC(=O)O)C(=O)O)NC(=O)C(C)(C)NC(=O)[C@H](CCC(N)=O)NC(=O)[C@H](C)NC(=O)[C@H](CCCCNC(=O)COCCOCCNC(=O)COCCOCCNC(=O)CC[C@H](NC(=O)CCCCCCCCCCCCC(=O)O)C(=O)O)NC(=O)[C@H](CCCN)NC(=O)[C@H](CC(=O)O)NC(=O)[C@H](CC(C)C)NC(=O)[C@](C)(CC(C)C)NC(=O)[C@@H](NC(=O)C(C)(C)NC(=O)[C@@H](NC(=O)[C@H](CC(=O)O)NC(=O)[C@H](CO)NC(=O)[C@@H](NC(=O)[C@](C)(Cc1ccccc1F)NC(=O)[C@@H](NC(=O)CNC(=O)[C@H](CCC(=O)O)NC(=O)C(C)(C)NC(=O)[C@@H](N)Cc1ccc(O)cc1)[C@@H](C)O)[C@@H](C)O)C(C)C)[C@@H](C)CC)[C@@H](C)CC)C(=O)N[C@@H](CCCN)C(=O)NCC(=O)NCC(=O)N1CCC[C@H]1C(=O)N[C@@H](CO)C(=O)N[C@@H](CO)C(=O)NCC(=O)N[C@@H](C)C(=O)N1CCC[C@H]1C(=O)N1CCC[C@H]1C(=O)N1CCC[C@H]1C(=O)N[C@@H](CO)C(N)=O
# Target: hGLP-1R (Homo sapiens, UniProt P43220)
# Test: cell-based or functional assay
Binder,cAMP EC50 [nM],cAMP Emax [%]
Y[Aib]EGT[αMePhe(2-F)]TSDK([AEEA-AEEA-γGlu-Lauroyl])[Aib]I[αMeL]LD[Orn]K([AEEA-AEEA-γGlu-Lauroyl])AQ[Aib][4Pal]FI[dE][αMeY]LIEGGPSSGAPPPS-NH2 [Example 415],0.122,109
B1,0.188,103
B2,0.132,113
B3,0.057,101
B4,0.119,–
B5,0.0675,109
Y[Aib]EGT[αMePhe(2-F)]TSDV[Aib]I[αMeL]LD[Orn]K([AEEA-AEEA-γGlu-Decanoyl(10-(4-HOOC-PhO))])AQ[Aib]K([AEEA-AEEA-γGlu-Decanoyl(10-(4-HOOC-PhO))])FI[dE][αMeY]LI[Orn]GGPSSGAPPPS-NH2 [Example 410],0.251,94
B6,0.0603,93.7
B7,0.123,99.7
B8,0.156,100

# Target: T1, human GIP receptor (human)
# Test: cell-based or functional assay
Binder,cAMP EC50 [nM],cAMP Emax [%]
Y[Aib]EGT[αMePhe(2-F)]TSDK([AEEA-AEEA-γGlu-Lauroyl])[Aib]I[αMeL]LD[Orn]K([AEEA-AEEA-γGlu-Lauroyl])AQ[Aib][4Pal]FI[dE][αMeY]LIEGGPSSGAPPPS-NH2 [Example 415],0.00991,101
B1,0.00928,99.2
B2,0.00958,101
B3,0.00618,100
B4,0.00961,98.4
B5,0.00651,101
Y[Aib]EGT[αMePhe(2-F)]TSDV[Aib]I[αMeL]LD[Orn]K([AEEA-AEEA-γGlu-Decanoyl(10-(4-HOOC-PhO))])AQ[Aib]K([AEEA-AEEA-γGlu-Decanoyl(10-(4-HOOC-PhO))])FI[dE][αMeY]LI[Orn]GGPSSGAPPPS-NH2 [Example 410],0.0118,99.1
B6,0.00599,91
B7,0.00964,101
B8,0.0114,99.2

# Target: human glucagon receptor (human) (UniProt P47871)
# Test: cell-based or functional assay
row,Binder,cAMP EC50 [nM]
1,Y[Aib]EGT[αMePhe(2-F)]TSDK([AEEA-AEEA-γGlu-Lauroyl])[Aib]I[αMeL]LD[Orn]K([AEEA-AEEA-γGlu-Lauroyl])AQ[Aib][4Pal]FI[dE][αMeY]LIEGGPSSGAPPPS-NH2 [Example 415],> 9950
2,B1,> 9950
3,B2,> 9950
4,B3,> 9950
5,B4,> 9950
6,B5,> 9950
7,Y[Aib]EGT[αMePhe(2-F)]TSDV[Aib]I[αMeL]LD[Orn]K([AEEA-AEEA-γGlu-Decanoyl(10-(4-HOOC-PhO))])AQ[Aib]K([AEEA-AEEA-γGlu-Decanoyl(10-(4-HOOC-PhO))])FI[dE][αMeY]LI[Orn]GGPSSGAPPPS-NH2 [Example 410],> 9950
8,B6,> 9950
9,B7,> 9950
10,B8,> 9950

# Target: T2, human GIP receptor
# Test: cell-based or functional assay
Binder,cAMP EC50 (1.0% HSA) [nM],cAMP Emax (1.0% HSA) [%]
Y[Aib]EGT[αMePhe(2-F)]TSDK([AEEA-AEEA-γGlu-Lauroyl])[Aib]I[αMeL]LD[Orn]K([AEEA-AEEA-γGlu-Lauroyl])AQ[Aib][4Pal]FI[dE][αMeY]LIEGGPSSGAPPPS-NH2 [Example 415],0.492,–
B1,0.537,84
B2,0.44,–
B3,0.164,98
B4,0.274,92.2
B5,0.201,–
Y[Aib]EGT[αMePhe(2-F)]TSDV[Aib]I[αMeL]LD[Orn]K([AEEA-AEEA-γGlu-Decanoyl(10-(4-HOOC-PhO))])AQ[Aib]K([AEEA-AEEA-γGlu-Decanoyl(10-(4-HOOC-PhO))])FI[dE][αMeY]LI[Orn]GGPSSGAPPPS-NH2 [Example 410],1.28,86.4
B6,0.126,–
B7,0.351,–
B8,1.87,95.4

# Target: human GLP-1 receptor (human, UniProt P43220 24-463)
# Test: cell-based or functional assay
Binder,cAMP EC50 (1.0% HSA) [nM],cAMP Emax (1.0% HSA) [%]
Y[Aib]EGT[αMePhe(2-F)]TSDK([AEEA-AEEA-γGlu-Lauroyl])[Aib]I[αMeL]LD[Orn]K([AEEA-AEEA-γGlu-Lauroyl])AQ[Aib][4Pal]FI[dE][αMeY]LIEGGPSSGAPPPS-NH2 [Example 415],5.72,–
B1,8.05,97.7
B2,7.19,97.3
B3,2.01,–
B4,3.24,–
B5,2.66,–
Y[Aib]EGT[αMePhe(2-F)]TSDV[Aib]I[αMeL]LD[Orn]K([AEEA-AEEA-γGlu-Decanoyl(10-(4-HOOC-PhO))])AQ[Aib]K([AEEA-AEEA-γGlu-Decanoyl(10-(4-HOOC-PhO))])FI[dE][αMeY]LI[Orn]GGPSSGAPPPS-NH2 [Example 410],11,93.1
B6,1.72,98.8
B7,10,109
B8,12.4,97.2

# Target: human glucagon receptor (human, UniProt P47871 26-477)
# Sequence (P47871 26-477): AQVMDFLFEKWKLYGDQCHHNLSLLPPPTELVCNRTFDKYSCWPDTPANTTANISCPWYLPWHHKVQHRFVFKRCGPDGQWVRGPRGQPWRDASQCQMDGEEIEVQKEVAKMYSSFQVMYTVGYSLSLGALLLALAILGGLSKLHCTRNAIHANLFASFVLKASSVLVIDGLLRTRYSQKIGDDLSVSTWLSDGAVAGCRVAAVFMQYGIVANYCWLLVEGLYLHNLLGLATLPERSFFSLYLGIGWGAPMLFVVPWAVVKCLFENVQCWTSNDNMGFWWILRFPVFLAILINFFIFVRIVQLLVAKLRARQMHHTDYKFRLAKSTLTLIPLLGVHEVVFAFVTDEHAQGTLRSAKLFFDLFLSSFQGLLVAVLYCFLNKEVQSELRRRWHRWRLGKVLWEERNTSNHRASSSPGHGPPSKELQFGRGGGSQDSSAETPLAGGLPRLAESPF
# Test: cell-based or functional assay
row,Binder,cAMP EC50 (1.0% HSA) [nM]
1,Y[Aib]EGT[αMePhe(2-F)]TSDK([AEEA-AEEA-γGlu-Lauroyl])[Aib]I[αMeL]LD[Orn]K([AEEA-AEEA-γGlu-Lauroyl])AQ[Aib][4Pal]FI[dE][αMeY]LIEGGPSSGAPPPS-NH2 [Example 415],> 9950
2,B1,> 9950
3,B2,> 9950
4,B3,> 9950
5,B4,> 9950
6,B5,> 9950
7,Y[Aib]EGT[αMePhe(2-F)]TSDV[Aib]I[αMeL]LD[Orn]K([AEEA-AEEA-γGlu-Decanoyl(10-(4-HOOC-PhO))])AQ[Aib]K([AEEA-AEEA-γGlu-Decanoyl(10-(4-HOOC-PhO))])FI[dE][αMeY]LI[Orn]GGPSSGAPPPS-NH2 [Example 410],> 9950
8,B6,> 9950
9,B7,> 9950
10,B8,> 9950
